Results: the RNAGym collection of RNA variant scans (doi:10.1073/pnas.2313332121)

B1: TPR t1 (parent)
chain: GACCAAUCUGCCCUCAGAGCUCGAGAACAUCUUCGGAUGCAGAGGAGGCAGGCUUCGGUGGCGCGAUAGCGCCAACGUCCUCAACCUCCAAUGCAUCCCACCACAUGAUGAUGCCUGAAGAGCCUUGGUUUUUUG

Variants of: B1
Assay: polymerase ribozyme fitness, log enrichment relative to wild type (log ratio); higher = more active; in vitro selection for triplet polymerase activity
Outline: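 After PCR construction and transcription, each subunit's mutant library from a heterodimeric triplet polymerase ribozyme was annealed with a biotinylated primer, the partner subunit and triplets. Incubation was frozen, at −7 °C, and extended constructs were gel-excised, bound to streptavidin beads and amplified by RT-PCR, in one selection round done in triplicate. Fitness is the logarithm of a genotype's enrichment divided by that of the wild type, from inverse-variance-weighted replicate averages of Illumina-sequenced inputs and outputs. The base of the logarithm is 2, and genotypes needed ≥10 input reads and ≥1 read per output.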

Row | Variant | polymerase ribozyme fitness (log ratio)
1 | G39A G45C | -2.32
2 | G39A G51U | -3.49
3 | G39A C94U | -0.565
4 | G39U U92C C101G | -5.46
5 | C40G G61U C72G G117C | -4.91
6 | A41C C114G | -1.19
7 | C40G C56U A100U C101G | -2.81
8 | G39U C53G C123U | 1.06
9 | G39U A68G C123U U133A | -2.96
10 | U38G C115G | -3.06
11 | C40U C73A | -0.621
12 | G39A C102U A118G | -2.73
13 | C40U G63C C98U A100U C101U | -3.3
14 | G39U C56U C73U | -1.4
15 | G39A C73U U106A U109C G113A G117A | -5.45
16 | U38G C64U C80G U131C | -6.8
17 | A41C G42C U106A | -2.3
18 | C40G G60U A68G | -4.86
19 | G39A C49G C62G A90C G113A | -6.39
20 | C40U G61U | -0.267
21 | A41C G51U A121G | -3.12

Row | Variant | polymerase ribozyme fitness (log ratio)
22 | G39A C72U U78C C99U G120A U126C | -2.95
23 | A41C A46G | -1.13
24 | G39A G44U C82A A95C C115G | -3.83
25 | G39A C56U | -0.755
26 | G39A G51U U129G | -5.53
27 | G39U C40U G42A C56U | -2.23
28 | C40U C123A | 0.43
29 | C40U C123U | 0.0584
30 | G39U C72G C82G | -2.35
31 | G39U G113A | -1.25
32 | C40A G42A C56G C72A A84C | -4.52
33 | A41C G77C C82U | -1.51
34 | C40A A41U G69U G135C | -0.488
35 | A41C G51C | -6.13
36 | G39A C64U A90G G135U | -1.27
37 | C40G G48U | -1.55
38 | C40G G48A | -1.87
39 | C40U G48A C53A G113C | -2.73
40 | A41C G63C | -2.4
41 | G39C U54G C70A | -3.74
42 | C40A C56U C72G | -3.26

Row | Variant | polymerase ribozyme fitness (log ratio)
43 | A41C G48A G60U | -1.76
44 | C40G G57U A91C | -3.44
45 | C40U G52C G117C | -6.09
46 | C40G A46U C56A U92A C114U | -6.09
47 | A41G A68G | -3.96
48 | C40U G51U C53U G61U G113U | -6.53
49 | C40U C64U A90C | -1.97
50 | C40G G47U G93U U129C U133G | -2.76
51 | G39A U129C | -0.434
52 | A41C C62U | -2.99
53 | C40U C104A A118U | -1.26
54 | C40A A50G G71U C85U | -2.76
55 | C40A G61C U126G | -5.2
56 | G39A C123A | -0.277
57 | U38G C49A U54C G69U C104A | -0.856
58 | G39C C40A | -3.01
59 | A41C G135U | -1.68
60 | A41C C70A | -3
61 | G39A A111C | -0.291
62 | C40A U92G | -2.37
63 | C40U G52U | -1.14

Row | Variant | polymerase ribozyme fitness (log ratio)
64 | C40A G61C A118U U130G | -3.57
65 | G39U G113A U132A | -2.47
66 | C40A C102A G113U C124A | -6.46
67 | C40U C70A G128A | -4.95
68 | G39U G51A A118G | -4.52
69 | G39U C56G C102U | -2.53
70 | A41C G48A G51U C80A C99G C115A U116G | -6.22
71 | C40A U78G C88G | -4.1
72 | U38G G128C | -2.66
73 | A41C G107A | -5.61
74 | C40G C124U | 0.744
75 | G39U C70G | -4.12
76 | G39U G52A | -1.4
77 | G39U G52U | -1.9
78 | A41C A46C C114U U131C | -3.66
79 | G39U C53A C82A C124G | 1.35
80 | U38G C89A U96A C114G | -5.44
81 | C40G G57C | -1.56
82 | C40A A84G A95C U125G U126G U129A | -4.98
83 | C40A C124U | 0.897
84 | G39C A43C G69U C82G U96C | -3.31
